Laboratory results as given in PMC10679814, “Yeast lunapark regulates the formation of trans-Sey1p complexes for homotypic ER membrane fusion” (iScience, 2023).

T1: His6-tagged Sey1p-(1-283) (S. cerevisiae, UniProt Q99287 1-283)
T1 construct: Sey1p, S. cerevisiae, amino acids 1-283 (GTPase domain); in pET28a; also called GTPase domain of Sey1p; source: E. coli Rosetta-2 DE3, purified (Ni-NTA)
T1 sequence (looked up): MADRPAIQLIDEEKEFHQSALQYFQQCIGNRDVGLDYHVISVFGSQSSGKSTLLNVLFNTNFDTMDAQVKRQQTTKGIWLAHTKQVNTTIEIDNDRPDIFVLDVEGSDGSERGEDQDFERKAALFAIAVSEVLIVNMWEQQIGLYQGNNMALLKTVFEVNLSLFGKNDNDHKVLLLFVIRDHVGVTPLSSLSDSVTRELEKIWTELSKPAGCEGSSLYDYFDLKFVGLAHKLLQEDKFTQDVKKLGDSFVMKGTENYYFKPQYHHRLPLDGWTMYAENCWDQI

T2: His6-tagged Sey1p-(1-675), the N-terminal cytoplasmic region of Sey1p (S. cerevisiae, UniProt Q99287 1-675)
T2 construct: in pET28a; source: E. coli Rosetta-2 DE3, purified (Ni-NTA)
T2 sequence (looked up): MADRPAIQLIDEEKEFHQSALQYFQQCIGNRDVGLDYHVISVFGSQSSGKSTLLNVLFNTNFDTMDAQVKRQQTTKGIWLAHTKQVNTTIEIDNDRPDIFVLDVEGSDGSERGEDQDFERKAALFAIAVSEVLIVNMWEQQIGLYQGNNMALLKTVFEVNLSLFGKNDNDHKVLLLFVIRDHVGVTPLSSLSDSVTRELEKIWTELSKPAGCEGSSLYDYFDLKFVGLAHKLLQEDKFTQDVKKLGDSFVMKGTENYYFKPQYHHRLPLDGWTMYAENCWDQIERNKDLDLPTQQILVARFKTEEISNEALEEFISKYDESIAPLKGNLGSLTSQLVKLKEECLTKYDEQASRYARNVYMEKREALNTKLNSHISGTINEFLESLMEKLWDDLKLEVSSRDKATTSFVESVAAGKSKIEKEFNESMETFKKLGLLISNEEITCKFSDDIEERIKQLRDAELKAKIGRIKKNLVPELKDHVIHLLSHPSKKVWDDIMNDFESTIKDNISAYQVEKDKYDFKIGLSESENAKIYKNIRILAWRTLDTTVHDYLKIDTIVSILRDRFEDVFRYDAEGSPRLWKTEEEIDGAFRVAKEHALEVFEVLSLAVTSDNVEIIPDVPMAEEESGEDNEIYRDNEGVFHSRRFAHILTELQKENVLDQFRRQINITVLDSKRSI

B1: Lnp1p peptide, a synthetic peptide with the N-terminal region (amino acids 1-52) of Lnp1p (peptide, UniProt P38878 1-52, looked up)
peptide: MFSALGKWVRGSRNDKDFVTKYTADLSQITSQIHQLDVALKKSQSILSQWQS
notes: Lnp1p (yeast lunapark), S. cerevisiae, amino acids 1-52; also called LNP1 peptide; source: synthetic peptide (custom, Anygen)

Tests used:
[1] = biological target: Sey1p-ΔTM (S. cerevisiae); assay: SEC; Superdex 200 (10/300), 20 mM HEPES-NaOH pH 7.4, 150 mM NaCl; Sey1p-ΔTM incubated at 30°C for 1 h with GMP-PNP, without or with the Lnp1p peptide
[2] = biological target: T1, His6-tagged Sey1p-(1-283); assay: pull-down; 40 μg his6-tagged protein with 20 μM Lnp1p peptide in RB150 buffer, 0.4% Triton X-100, 20 mM imidazole, 4°C 2 h; Ni-NTA agarose 30 min; SDS-PAGE, Coomassie; details: both partners purified
[3] = biological target: T2, His6-tagged Sey1p-(1-675), the …; assay: as above; details: both partners purified

| Molecule | stoichiometry N [1] | binding result [2] | binding result [3] |
| --- | --- | --- | --- |
| Sey1p-ΔTM (domain or fragment) | 2 |  |  |
| B1 |  | binds | binds |
